Reference: patent US20130251724A1 (GlaxoSmithKline, published 2013)
Residue numbers refer to the chain shown, from its start. Names and notes keep the numbering of the source.

T1: Human OSM (human, UniProt P13725 26-221)
T1 construct: Recombinant human OSM; also called hOSM; human Oncostatin M
T1 sequence: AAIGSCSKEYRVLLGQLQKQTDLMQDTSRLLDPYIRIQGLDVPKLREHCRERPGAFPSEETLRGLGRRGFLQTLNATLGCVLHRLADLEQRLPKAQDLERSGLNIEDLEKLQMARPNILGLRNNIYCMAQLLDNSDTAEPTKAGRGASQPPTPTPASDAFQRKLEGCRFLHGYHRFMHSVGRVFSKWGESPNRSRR

T2: Cynomolgus OSM (cynomolgus, UniProt A0A2K5VPC6 26-221)
T2 construct: also called Cyno OSM; cynomolgus macaque OSM
T2 sequence: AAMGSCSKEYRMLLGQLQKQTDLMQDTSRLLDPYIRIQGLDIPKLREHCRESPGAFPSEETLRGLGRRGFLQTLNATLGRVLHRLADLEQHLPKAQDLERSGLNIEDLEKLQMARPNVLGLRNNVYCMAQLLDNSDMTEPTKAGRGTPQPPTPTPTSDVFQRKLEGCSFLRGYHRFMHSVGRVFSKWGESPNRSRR

B1: Pos 100D Glu (antibody, V domains shown)
VH: EVQLVESGGGLVQPGGSLRLSCAASGFTFSSYAMSWVRQAPGKGLEWVATISDGGSFTYYLDNVRGRFTISRDNAKNSLYLQMNSLRAEDTAVYYCARDVGHTTFWYEDVWGRGTLVTVSS
VL: DIVMTQSPDSLAVSLGERATINCRASKSVSAAGYNFMHWYQQKPGQPPKVLIYYASNLESGVPDRFSGSGSGTDFTLTISSLQAEDVAVYYCLHSREFPFTFGGGTKVEIKR
notes: also called CDRH3 F100D>E
B2: Pos 102 Pro (antibody, V domains shown)
VH: B1 VH with E108F, V110P
VL: B1 VL
notes: also called CDRH3 V102>P
B3: Pos 100C Glu (antibody, V domains shown)
VH: B1 VH with Y107E, E108F
VL: B1 VL
notes: also called CDRH3 Y100C>E
B4: Pos 96 His (antibody, V domains shown)
VH: B1 VH with V100H, E108F
VL: B1 VL
notes: also called CDRH3 V96>H
B5: Pos 101 Gly (antibody, V domains shown)
VH: B1 VH with E108F, D109G
VL: B1 VL
notes: also called CDRH3 D101>G
B6: Pos 100D Ala (antibody, V domains shown)
VH: B1 VH with E108A
VL: B1 VL
notes: also called CDRH3 F100D>A
B7: Pos 102 Phe (antibody, V domains shown)
VH: B1 VH with E108F, V110F
VL: B1 VL
notes: also called CDRH3 V102>F
B8: Pos 99 Cys (antibody, V domains shown)
VH: B1 VH with T103C, E108F
VL: B1 VL
notes: also called CDRH3 T99>C
B9: Pos 98 Gly (antibody, V domains shown)
VH: B1 VH with H102G, E108F
VL: B1 VL
notes: also called CDRH3 H98>G
B10: Pos 100B Glu (antibody, V domains shown)
VH: B1 VH with W106E, E108F
VL: B1 VL
notes: also called CDRH3 W100B>E
B11: Pos 98 Ala (antibody, V domains shown)
VH: B1 VH with H102A, E108F
VL: B1 VL
notes: also called CDRH3 H98>A
B12: Pos 97 Ala (antibody, V domains shown)
VH: B1 VH with G101A, E108F
VL: B1 VL
notes: also called CDRH3 G97>A
B13: Pos 98 Gln (antibody, V domains shown)
VH: B1 VH with H102Q, E108F
VL: B1 VL
notes: also called CDRH3 H98>Q
B14: Pos 102 Gly (antibody, V domains shown)
VH: B1 VH with E108F, V110G
VL: B1 VL
notes: also called CDRH3 V102>G
B15: Pos 96 Phe (antibody, V domains shown)
VH: B1 VH with V100F, E108F
VL: B1 VL
notes: also called CDRH3 V96>F
B16: Pos 97 Cys (antibody, V domains shown)
VH: B1 VH with G101C, E108F
VL: B1 VL
notes: also called CDRH3 G97>C
B17: Pos 96 Lys (antibody, V domains shown)
VH: B1 VH with V100K, E108F
VL: B1 VL
notes: also called CDRH3 V96>K
B18: Pos 98 Phe (antibody, V domains shown)
VH: B1 VH with H102F, E108F
VL: B1 VL
notes: also called CDRH3 H98>F
B19: Pos 100C Phe (antibody, V domains shown)
VH: B1 VH with Y107F, E108F
VL: B1 VL
notes: also called CDRH3 Y100C>F
B20: Pos 100D Asp (antibody, V domains shown)
VH: B1 VH with E108D
VL: B1 VL
notes: also called CDRH3 F100D>D
B21: Pos 97 Phe (antibody, V domains shown)
VH: B1 VH with G101F, E108F
VL: B1 VL
notes: also called CDRH3 G97>F
B22: Pos 102 Gln (antibody, V domains shown)
VH: B1 VH with E108F, V110Q
VL: B1 VL
notes: also called CDRH3 V102>Q
B23: Pos 101 Glu (antibody, V domains shown)
VH: B1 VH with E108F, D109E
VL: B1 VL
notes: also called CDRH3 D101>E
B24: Pos 100D Gly (antibody, V domains shown)
VH: B1 VH with E108G
VL: B1 VL
notes: also called CDRH3 F100D>G
B25: Pos 102 Ala (antibody, V domains shown)
VH: B1 VH with E108F, V110A
VL: B1 VL
notes: also called CDRH3 V102>A
B26: Pos 99 Ala (antibody, V domains shown)
VH: B1 VH with T103A, E108F
VL: B1 VL
notes: also called CDRH3 T99>A
B27: Pos 100C Gly (antibody, V domains shown)
VH: B1 VH with Y107G, E108F
VL: B1 VL
notes: also called CDRH3 Y100C>G
B28: Pos 97 Met (antibody, V domains shown)
VH: B1 VH with G101M, E108F
VL: B1 VL
notes: also called CDRH3 G97>M
B29: Pos 102 Leu (antibody, V domains shown)
VH: B1 VH with E108F, V110L
VL: B1 VL
notes: also called CDRH3 V102>L
B30: Pos 95 Thr (antibody, V domains shown)
VH: B1 VH with D99T, E108F
VL: B1 VL
notes: also called CDRH3 D95>T
B31: Humanised 10G8 H0 IGHV3_7 + L1 (antibody, V domains shown)
VH: B1 VH with A33W, E108F
VL: DIVMTQSPDSLAVSLGERATINCRASKSVSAAGYNFMHWYQQKPGQPPKVLIYYASNLESGVPDRFSGSGSGTDFTLTISSLQAEDVAVYYCLHSREFPFTFGGGTKVEIK
notes: built from the statement that the germline CDRH1 was exchanged for the mouse CDRH1 in H0; Human gamma 1/kappa constant regions
B32: Humanised 10G8 H0 + L1 IGKV1_5 (antibody, V domains shown)
VH: B1 VH with S31N, E108F
VL: B31 VL with Y54K, N57S
notes: built from the stated exchange of CDRL2; residue limits derived by me; Human gamma 1/kappa constant regions
B33: Humanised 10G8 H0 IGHV3_23 + L1 IGKV1_5 (antibody, V domains shown)
VH: B1 VH with E108F
VL: B31 VL with Y54K, N57S
notes: built from the stated exchange of CDRL2; residue limits derived by me
B34: Humanised 10G8 H0 IGHV3_7 + L1 IGKV4_1 (antibody, V domains shown)
VH: B1 VH with A33W, E108F
VL: B31 VL with Y54W, N57T, L58R
notes: built from the stated CDR exchanges; residue limits derived by me

Molecular target: T1, Human OSM
Test: SPR (ProteOn XPR36 or Biacore T100), captured supernatant, OSM as analyte
Protocol: (§1) The initial kinetic analyses for the CDRH3 screen were carried out on the ProteOn XPR36 (Biorad Laboratories) and certain supernatants were selected for more accurate kinetic analysis on the BiaCore T100.
(§2) For the ProteOn analysis, anti-human IgG (GE Healthcare/Biacore BR-1008-39) was coupled to a GLM chip (Biorad Laboratories 176-5012) by primary amine coupling. The CDRH3 variants were captured directly on to this surface and recombinant human OSM was passed over the captured antibody surface at 256, 64, 16, 4 and 1 nM, with a buffer injection alone (i.e. 0 nM) used to double reference the binding curves. Following the OSM binding event, the capture surfaces were regenerated: with 3M MgCl₂ the regeneration removed the previously captured antibody ready for another cycle of capture and binding analysis. The data was then fitted to the 1:1 model (with mass transport) inherent to the ProteOn analysis software. The run was carried out using HBS-EP (Biacore/GE-Healthcare BR-1006-69) and the analysis temperature was 25° C.
(§3) A similar method was used for analysis of constructs using the Biacore T100, anti-human IgG (GE Healthcare/Biacore BR-1008-39) was coupled to a CM5 chip (GE Healthcare/Biacore BR-1006-68) by primary amine coupling, antibodies were captured on this surface and recombinant human OSM was passed over the captured antibody surface at 256, 64, 16, 4 and 1 nM, with a buffer injection alone (i.e. 0 nM) used to double reference the binding curves. Regeneration was by using pulses of 3M 3M MgCl₂ or 100 mM phosphoric acid or using both reagents. The data was fitted to the 1:1 model inherent to the Biacore T100 analysis software. The run was carried out using HBS-EP (Biacore/GE-Healthcare BR-1006-69) and the analysis temperature was 25° C.

Kd [nM] | Binder
0.688 | B1
0.411 | B2
0.482 | B3
0.48 | B4
0.71 | B5
0.869 | B6
0.425 | B7
0.708 | B8
1.11 | B9
0.491 | B10
0.659 | B11
0.486 | B12
0.729 | B13
0.406 | B14
0.61 | B15
0.651 | B16
0.671 | B17
0.325 | B18
0.365 | B19
0.672 | B20
0.637 | B21
0.337 | B22
0.426 | B23
0.661 | B24
0.338 | B25
0.541 | B26
0.388 | B27
0.809 | B28
0.426 | B29

Molecular target: T1, Human OSM
Test: SPR (ProteOn XPR36 or Biacore T100), captured supernatant, OSM as analyte [continued]
Protocol: as §1, §2, §3

Kd [nM] | Binder
0.632 | B30

Molecular target: T2, Cynomolgus OSM
Test: BIAcore kinetics, transfection supernatant

Kd [nM] | koff [s⁻¹] | kon [M⁻¹ s⁻¹] | Binder
24.2 | 0.815 | 3.37e+07 | B31
8.26 | 0.000557 | 67500 | B32
8.89 | 0.000593 | 66700 | B33
34.9 | 0.00177 | 50700 | B34

Molecular target: T1, Human OSM
Test: BIAcore kinetics, transfection supernatant

Kd [nM] | koff [s⁻¹] | kon [M⁻¹ s⁻¹] | Binder
10.6 | 0.000967 | 91000 | B31
9.33 | 0.00064 | 68700 | B32
9.27 | 0.00066 | 71100 | B33
44.4 | 0.00163 | 36800 | B34
